Results as given in US20230257470A1 (published 2023).
Where a chain is given by its changes, count along the chain named. Each block holds one binder with its values, some of them ahead of it.

How the values were obtained:
Test in all cases: SPR (Biacore), antibody captured, FcγR as analyte; amount bound / that of GpH7-B3/GpL16-k0 x 100;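 note: FcγR binding response divided by the captured antibody amount before comparison, measured at 25 °C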
[1] = molecular target: T1, human FcγRIa (human, UniProt P12314 16-292, limits assumed)
T1 construct: also called FcgRIa; CD64
T1 sequence (P12314 16-292 limits assumed): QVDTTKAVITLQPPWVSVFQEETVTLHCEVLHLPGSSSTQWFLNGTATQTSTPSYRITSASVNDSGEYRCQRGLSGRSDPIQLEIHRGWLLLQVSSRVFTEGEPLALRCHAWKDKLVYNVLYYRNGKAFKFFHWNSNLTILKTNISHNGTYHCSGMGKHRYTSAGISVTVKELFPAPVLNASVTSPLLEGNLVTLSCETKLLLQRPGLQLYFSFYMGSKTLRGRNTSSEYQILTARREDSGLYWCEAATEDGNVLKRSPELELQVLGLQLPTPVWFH

[2] = molecular target: T2, human FcγRIIa(R) (human, UniProt P12318 36-217)
T2 construct: also called FcgRIIaR; FcγRIIa type R
T2 chain: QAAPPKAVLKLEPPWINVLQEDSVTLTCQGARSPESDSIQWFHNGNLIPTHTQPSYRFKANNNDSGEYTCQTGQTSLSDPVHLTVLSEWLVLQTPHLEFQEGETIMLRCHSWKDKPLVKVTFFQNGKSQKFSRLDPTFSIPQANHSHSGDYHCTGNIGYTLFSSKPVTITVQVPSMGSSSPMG

[3] = molecular target: T3, human FcγRIIa(H) (human, UniProt P12318 36-217)
T3 construct: also called FcgRIIaH; FcγRIIa type H
T3 sequence: T2 chain with R133H

[4] = molecular target: T4, human FcγRIIb (human, UniProt P31994 43-217, limits assumed)
T4 construct: also called FcgRIIb; FcγIIB
T4 sequence: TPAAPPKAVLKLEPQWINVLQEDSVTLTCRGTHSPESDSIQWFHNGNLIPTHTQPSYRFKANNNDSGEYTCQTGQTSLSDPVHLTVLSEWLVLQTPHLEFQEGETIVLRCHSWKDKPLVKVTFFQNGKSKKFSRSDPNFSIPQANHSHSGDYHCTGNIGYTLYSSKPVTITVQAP

[5] = molecular target: T5, human FcγRIIIa(F) (human, UniProt P08637 17-208, limits assumed)
T5 construct: also called FcgRIIIaF; FcγRIIIa allotype F158
T5 sequence (P08637 other isoform, or with tags, fused parts or gaps limits assumed): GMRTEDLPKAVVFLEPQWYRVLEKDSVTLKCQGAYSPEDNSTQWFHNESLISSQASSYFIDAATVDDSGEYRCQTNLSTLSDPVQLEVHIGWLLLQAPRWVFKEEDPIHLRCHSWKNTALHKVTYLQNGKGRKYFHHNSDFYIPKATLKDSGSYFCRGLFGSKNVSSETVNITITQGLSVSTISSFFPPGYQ

B1: GpH7-B3/GpL16-k0 variant P271H (antibody, human IgG1)
heavy: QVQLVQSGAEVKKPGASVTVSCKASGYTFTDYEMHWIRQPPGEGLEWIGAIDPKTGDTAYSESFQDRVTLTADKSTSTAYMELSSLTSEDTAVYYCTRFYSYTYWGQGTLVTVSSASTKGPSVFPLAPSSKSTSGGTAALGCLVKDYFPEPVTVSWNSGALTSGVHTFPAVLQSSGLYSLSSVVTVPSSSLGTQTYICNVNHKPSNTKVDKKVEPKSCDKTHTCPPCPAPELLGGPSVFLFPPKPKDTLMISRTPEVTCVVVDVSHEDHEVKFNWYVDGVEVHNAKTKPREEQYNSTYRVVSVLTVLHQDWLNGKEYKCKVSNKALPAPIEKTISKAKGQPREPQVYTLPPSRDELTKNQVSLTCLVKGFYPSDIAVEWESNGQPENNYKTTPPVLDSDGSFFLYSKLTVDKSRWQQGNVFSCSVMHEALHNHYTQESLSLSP
light: DIVMTQSPLSLPVTPGEPASISCQASESLVHSNRNTYLHWYLQKPGQSPQLLIYKVSNRFSGVPDRFSGSGSGTDFTLKISRVEAEDVGVYYCSQNTHVPPTFGQGTKVEIE
notes: also called B3 variant; copies: 2 + 2
relative binding activity [1]: 98 GpH7-B3/GpL16-k0 = 100
relative binding activity [2]: 58 GpH7-B3/GpL16-k0 = 100
relative binding activity [3]: 58 GpH7-B3/GpL16-k0 = 100
relative binding activity [4]: 53 GpH7-B3/GpL16-k0 = 100
relative binding activity [5]: 50 GpH7-B3/GpL16-k0 = 100

B3: GpH7-B3/GpL16-k0 variant P271T (antibody, human IgG1)
heavy: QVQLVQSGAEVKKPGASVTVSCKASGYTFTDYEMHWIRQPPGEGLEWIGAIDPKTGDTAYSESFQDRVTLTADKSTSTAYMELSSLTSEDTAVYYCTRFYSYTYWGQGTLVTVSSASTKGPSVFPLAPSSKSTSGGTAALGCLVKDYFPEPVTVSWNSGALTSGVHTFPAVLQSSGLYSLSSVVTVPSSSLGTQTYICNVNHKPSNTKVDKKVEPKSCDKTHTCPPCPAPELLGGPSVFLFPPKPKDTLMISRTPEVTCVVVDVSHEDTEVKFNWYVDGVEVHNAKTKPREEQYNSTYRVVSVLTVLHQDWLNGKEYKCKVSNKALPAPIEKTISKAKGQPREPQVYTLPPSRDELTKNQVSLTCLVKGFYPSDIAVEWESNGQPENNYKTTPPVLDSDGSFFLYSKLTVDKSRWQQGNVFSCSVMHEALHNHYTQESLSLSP
light: B1 light
notes: as for B1
relative binding activity [1]: 98 GpH7-B3/GpL16-k0 = 100
relative binding activity [2]: 73 GpH7-B3/GpL16-k0 = 100
relative binding activity [3]: 42 GpH7-B3/GpL16-k0 = 100
relative binding activity [4]: 78 GpH7-B3/GpL16-k0 = 100
relative binding activity [5]: 31 GpH7-B3/GpL16-k0 = 100

B4: GpH7-B3/GpL16-k0 variant Q295G (antibody, human IgG1)
heavy: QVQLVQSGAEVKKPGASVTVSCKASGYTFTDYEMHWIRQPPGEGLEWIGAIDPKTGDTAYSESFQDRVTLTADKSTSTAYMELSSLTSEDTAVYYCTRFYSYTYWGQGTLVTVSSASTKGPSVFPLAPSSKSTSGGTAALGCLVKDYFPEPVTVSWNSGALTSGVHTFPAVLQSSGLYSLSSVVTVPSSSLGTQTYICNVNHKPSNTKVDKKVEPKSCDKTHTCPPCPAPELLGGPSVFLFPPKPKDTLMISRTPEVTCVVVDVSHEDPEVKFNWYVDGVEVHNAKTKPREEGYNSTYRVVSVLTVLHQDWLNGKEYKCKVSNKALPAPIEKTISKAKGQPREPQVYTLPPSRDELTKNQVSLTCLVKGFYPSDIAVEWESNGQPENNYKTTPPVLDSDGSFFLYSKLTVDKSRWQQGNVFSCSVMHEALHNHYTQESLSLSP
light: B1 light
notes: as for B1
relative binding activity [1]: 89 GpH7-B3/GpL16-k0 = 100
relative binding activity [2]: 36 GpH7-B3/GpL16-k0 = 100
relative binding activity [3]: 41 GpH7-B3/GpL16-k0 = 100
relative binding activity [4]: 28 GpH7-B3/GpL16-k0 = 100
relative binding activity [5]: 55 GpH7-B3/GpL16-k0 = 100

B5: GpH7-B3/GpL16-k0 variant P271R (antibody, human IgG1)
heavy: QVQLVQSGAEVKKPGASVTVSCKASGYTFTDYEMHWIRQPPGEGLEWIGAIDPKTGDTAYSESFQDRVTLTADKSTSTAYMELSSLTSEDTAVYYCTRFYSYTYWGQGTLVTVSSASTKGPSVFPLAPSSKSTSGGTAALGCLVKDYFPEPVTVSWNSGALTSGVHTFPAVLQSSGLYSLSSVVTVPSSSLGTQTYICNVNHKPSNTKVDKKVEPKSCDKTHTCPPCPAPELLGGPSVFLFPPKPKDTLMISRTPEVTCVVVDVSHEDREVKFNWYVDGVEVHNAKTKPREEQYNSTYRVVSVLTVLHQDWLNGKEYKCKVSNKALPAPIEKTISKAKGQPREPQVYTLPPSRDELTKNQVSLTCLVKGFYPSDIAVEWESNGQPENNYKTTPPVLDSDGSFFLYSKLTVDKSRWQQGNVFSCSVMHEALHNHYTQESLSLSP
light: B1 light
notes: as for B1
relative binding activity [1]: 100 GpH7-B3/GpL16-k0 = 100
relative binding activity [2]: 89 GpH7-B3/GpL16-k0 = 100
relative binding activity [3]: 99 GpH7-B3/GpL16-k0 = 100
relative binding activity [4]: 87 GpH7-B3/GpL16-k0 = 100
relative binding activity [5]: 76 GpH7-B3/GpL16-k0 = 100

B6: GpH7-B3/GpL16-k0 variant Q295R (antibody, human IgG1)
heavy: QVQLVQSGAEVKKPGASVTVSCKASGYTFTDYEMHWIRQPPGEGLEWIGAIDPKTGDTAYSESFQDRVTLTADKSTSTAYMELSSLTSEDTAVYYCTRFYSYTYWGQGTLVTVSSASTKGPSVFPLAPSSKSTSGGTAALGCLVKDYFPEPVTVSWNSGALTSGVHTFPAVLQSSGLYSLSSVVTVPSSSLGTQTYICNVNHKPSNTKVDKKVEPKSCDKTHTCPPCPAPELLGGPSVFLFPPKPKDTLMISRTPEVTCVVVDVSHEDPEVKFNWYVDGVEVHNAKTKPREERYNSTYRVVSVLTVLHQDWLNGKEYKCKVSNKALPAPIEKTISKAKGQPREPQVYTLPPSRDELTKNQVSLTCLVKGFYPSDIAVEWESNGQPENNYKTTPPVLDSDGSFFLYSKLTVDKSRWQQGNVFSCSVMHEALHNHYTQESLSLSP
light: B1 light
notes: as for B1
relative binding activity [1]: 100 GpH7-B3/GpL16-k0 = 100
relative binding activity [2]: 61 GpH7-B3/GpL16-k0 = 100
relative binding activity [3]: 94 GpH7-B3/GpL16-k0 = 100
relative binding activity [4]: 46 GpH7-B3/GpL16-k0 = 100
relative binding activity [5]: 52 GpH7-B3/GpL16-k0 = 100

B10: GpH7-B3/GpL16-k0 variant Q295H (antibody, human IgG1)
heavy: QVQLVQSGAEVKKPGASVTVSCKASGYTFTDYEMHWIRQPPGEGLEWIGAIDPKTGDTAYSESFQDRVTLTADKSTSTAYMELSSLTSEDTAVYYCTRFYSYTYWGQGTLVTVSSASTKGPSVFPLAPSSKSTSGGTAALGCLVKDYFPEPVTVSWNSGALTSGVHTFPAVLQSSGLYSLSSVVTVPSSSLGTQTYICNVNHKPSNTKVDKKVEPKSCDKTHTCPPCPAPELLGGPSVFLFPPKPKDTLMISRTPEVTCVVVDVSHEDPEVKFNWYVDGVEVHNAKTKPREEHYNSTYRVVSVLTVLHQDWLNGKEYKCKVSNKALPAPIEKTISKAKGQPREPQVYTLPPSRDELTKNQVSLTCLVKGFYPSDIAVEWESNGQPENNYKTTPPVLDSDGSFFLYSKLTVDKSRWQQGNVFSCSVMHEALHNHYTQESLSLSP
light: B1 light
notes: as for B1
relative binding activity [1]: 97 GpH7-B3/GpL16-k0 = 100
relative binding activity [2]: 45 GpH7-B3/GpL16-k0 = 100
relative binding activity [3]: 78 GpH7-B3/GpL16-k0 = 100
relative binding activity [4]: 29 GpH7-B3/GpL16-k0 = 100
relative binding activity [5]: 52 GpH7-B3/GpL16-k0 = 100

B11: GpH7-B3/GpL16-k0 variant P271Y (antibody, human IgG1)
heavy: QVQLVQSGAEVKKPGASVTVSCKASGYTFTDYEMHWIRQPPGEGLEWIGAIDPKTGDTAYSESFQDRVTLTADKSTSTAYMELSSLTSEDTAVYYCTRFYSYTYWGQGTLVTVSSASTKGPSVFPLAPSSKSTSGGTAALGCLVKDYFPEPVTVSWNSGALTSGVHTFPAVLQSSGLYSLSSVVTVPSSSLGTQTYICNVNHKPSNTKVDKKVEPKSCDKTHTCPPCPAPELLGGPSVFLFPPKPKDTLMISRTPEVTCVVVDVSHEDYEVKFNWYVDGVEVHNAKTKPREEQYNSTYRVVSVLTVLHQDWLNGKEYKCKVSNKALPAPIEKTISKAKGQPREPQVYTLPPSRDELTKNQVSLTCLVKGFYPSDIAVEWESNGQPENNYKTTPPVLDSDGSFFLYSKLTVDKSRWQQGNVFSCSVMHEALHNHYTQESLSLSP
light: B1 light
notes: as for B1
relative binding activity [1]: 98 GpH7-B3/GpL16-k0 = 100
relative binding activity [2]: 38 GpH7-B3/GpL16-k0 = 100
relative binding activity [3]: 48 GpH7-B3/GpL16-k0 = 100
relative binding activity [4]: 28 GpH7-B3/GpL16-k0 = 100
relative binding activity [5]: 33 GpH7-B3/GpL16-k0 = 100

Results, then the binder that gave them:

relative binding activity [1]: 100 GpH7-B3/GpL16-k0 = 100
relative binding activity [2]: 52 GpH7-B3/GpL16-k0 = 100
relative binding activity [3]: 67 GpH7-B3/GpL16-k0 = 100
relative binding activity [4]: 40 GpH7-B3/GpL16-k0 = 100
relative binding activity [5]: 87 GpH7-B3/GpL16-k0 = 100
B2: GpH7-B3/GpL16-k0 variant Q295S (antibody, human IgG1)
heavy: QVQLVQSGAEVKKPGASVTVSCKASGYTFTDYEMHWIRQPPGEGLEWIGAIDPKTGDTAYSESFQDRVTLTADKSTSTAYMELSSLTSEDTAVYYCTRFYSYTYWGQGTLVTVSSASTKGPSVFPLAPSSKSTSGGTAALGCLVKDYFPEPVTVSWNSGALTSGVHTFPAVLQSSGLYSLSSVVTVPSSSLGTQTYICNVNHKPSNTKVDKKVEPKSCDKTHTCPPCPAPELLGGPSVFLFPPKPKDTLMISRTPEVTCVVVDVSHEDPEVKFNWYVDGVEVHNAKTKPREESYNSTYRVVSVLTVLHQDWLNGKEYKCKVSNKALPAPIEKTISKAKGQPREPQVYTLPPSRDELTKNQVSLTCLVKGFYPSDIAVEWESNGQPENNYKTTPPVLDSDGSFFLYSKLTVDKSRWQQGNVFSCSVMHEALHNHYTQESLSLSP
light: B1 light
notes: as for B1

relative binding activity [1]: 81 GpH7-B3/GpL16-k0 = 100
relative binding activity [2]: 26 GpH7-B3/GpL16-k0 = 100
relative binding activity [3]: 38 GpH7-B3/GpL16-k0 = 100
relative binding activity [4]: 16 GpH7-B3/GpL16-k0 = 100
relative binding activity [5]: 10 GpH7-B3/GpL16-k0 = 100
B7: GpH7-B3/GpL16-k0 variant Q295W (antibody, human IgG1)
heavy: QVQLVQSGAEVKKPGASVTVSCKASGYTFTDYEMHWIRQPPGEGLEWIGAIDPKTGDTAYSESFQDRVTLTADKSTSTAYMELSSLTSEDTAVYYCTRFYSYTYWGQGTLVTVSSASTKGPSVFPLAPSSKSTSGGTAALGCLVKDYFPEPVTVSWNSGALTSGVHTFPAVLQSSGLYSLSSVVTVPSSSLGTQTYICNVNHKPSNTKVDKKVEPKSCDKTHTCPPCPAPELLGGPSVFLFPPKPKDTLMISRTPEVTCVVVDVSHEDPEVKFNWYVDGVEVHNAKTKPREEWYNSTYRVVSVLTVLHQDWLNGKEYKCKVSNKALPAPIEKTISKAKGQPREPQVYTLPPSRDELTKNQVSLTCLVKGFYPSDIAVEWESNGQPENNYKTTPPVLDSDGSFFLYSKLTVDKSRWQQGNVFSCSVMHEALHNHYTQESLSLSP
light: B1 light
notes: as for B1

relative binding activity [1]: 100 GpH7-B3/GpL16-k0 = 100
relative binding activity [2]: 89 GpH7-B3/GpL16-k0 = 100
relative binding activity [3]: 43 GpH7-B3/GpL16-k0 = 100
relative binding activity [4]: 68 GpH7-B3/GpL16-k0 = 100
relative binding activity [5]: 59 GpH7-B3/GpL16-k0 = 100
B8: GpH7-B3/GpL16-k0 variant S298G (antibody, human IgG1)
heavy: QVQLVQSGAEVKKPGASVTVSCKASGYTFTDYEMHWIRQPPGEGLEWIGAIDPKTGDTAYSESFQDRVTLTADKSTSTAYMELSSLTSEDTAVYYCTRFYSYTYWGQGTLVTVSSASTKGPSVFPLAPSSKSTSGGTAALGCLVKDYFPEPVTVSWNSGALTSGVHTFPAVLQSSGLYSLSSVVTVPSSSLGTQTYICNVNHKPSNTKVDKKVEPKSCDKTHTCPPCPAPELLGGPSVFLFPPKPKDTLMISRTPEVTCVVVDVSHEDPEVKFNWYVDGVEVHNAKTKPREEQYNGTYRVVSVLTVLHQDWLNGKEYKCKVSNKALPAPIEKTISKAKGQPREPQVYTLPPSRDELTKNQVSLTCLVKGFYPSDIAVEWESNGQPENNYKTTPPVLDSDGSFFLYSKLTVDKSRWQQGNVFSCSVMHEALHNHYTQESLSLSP
light: B1 light
notes: as for B1

relative binding activity [1]: 92 GpH7-B3/GpL16-k0 = 100
relative binding activity [2]: 62 GpH7-B3/GpL16-k0 = 100
relative binding activity [3]: 36 GpH7-B3/GpL16-k0 = 100
relative binding activity [4]: 22 GpH7-B3/GpL16-k0 = 100
relative binding activity [5]: 20 GpH7-B3/GpL16-k0 = 100
B9: GpH7-B3/GpL16-k0 variant S298R (antibody, human IgG1)
heavy: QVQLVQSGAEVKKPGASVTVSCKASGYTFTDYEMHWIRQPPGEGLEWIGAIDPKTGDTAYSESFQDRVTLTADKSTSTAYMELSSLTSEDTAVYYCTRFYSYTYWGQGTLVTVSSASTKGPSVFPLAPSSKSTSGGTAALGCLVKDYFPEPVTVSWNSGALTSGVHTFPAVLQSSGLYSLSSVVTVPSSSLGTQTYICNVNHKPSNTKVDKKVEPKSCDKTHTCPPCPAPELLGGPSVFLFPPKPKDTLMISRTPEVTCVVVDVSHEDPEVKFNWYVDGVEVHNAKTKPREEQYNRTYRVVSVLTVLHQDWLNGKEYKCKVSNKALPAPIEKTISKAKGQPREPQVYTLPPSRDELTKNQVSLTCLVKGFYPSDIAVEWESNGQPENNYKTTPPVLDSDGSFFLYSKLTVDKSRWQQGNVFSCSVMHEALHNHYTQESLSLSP
light: B1 light
notes: as for B1
